Measurements as given in article PMC4822050, “Hemi-methylated DNA opens a closed conformation of UHRF1 to facilitate its histone recognition” (Nature Communications, 2016).
One block for each binder: values may come before it.

Assays:
Conditions in all cases: both partners purified
[1] = molecular target: T1, full-length UHRF1 (residues 1–793) (human, UniProt Q96T88 1-793); test: ITC; 0.05 mM protein in the cell, 0.5 mM protein or peptide in the syringe, iTC200, 18 °C, 10 mM HEPES pH 8.0, 100 mM NaCl
T1 construct: human UHRF1, residues 1–793; monomer by gel filtration; also called wild-type UHRF1; ICBP90
T1 sequence (looked up): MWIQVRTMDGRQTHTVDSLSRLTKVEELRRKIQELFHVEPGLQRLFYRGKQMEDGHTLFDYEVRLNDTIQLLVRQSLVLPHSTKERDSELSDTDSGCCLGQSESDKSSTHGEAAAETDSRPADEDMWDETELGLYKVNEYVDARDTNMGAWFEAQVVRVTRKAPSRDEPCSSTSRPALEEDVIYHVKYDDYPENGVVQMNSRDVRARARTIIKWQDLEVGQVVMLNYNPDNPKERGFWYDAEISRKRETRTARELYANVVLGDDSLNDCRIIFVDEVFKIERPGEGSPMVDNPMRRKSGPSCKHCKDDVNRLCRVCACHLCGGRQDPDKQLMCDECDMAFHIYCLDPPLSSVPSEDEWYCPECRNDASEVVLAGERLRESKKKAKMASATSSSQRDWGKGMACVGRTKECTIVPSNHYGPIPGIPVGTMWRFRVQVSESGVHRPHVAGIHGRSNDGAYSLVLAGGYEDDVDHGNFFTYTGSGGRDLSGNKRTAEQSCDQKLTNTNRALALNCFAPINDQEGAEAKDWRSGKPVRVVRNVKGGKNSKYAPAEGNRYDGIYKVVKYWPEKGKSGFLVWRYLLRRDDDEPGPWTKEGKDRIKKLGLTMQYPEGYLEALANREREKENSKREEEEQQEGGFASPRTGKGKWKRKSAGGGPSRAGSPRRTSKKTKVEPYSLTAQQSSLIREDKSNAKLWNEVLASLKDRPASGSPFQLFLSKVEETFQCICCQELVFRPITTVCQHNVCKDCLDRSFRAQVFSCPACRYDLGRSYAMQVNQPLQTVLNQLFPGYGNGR

[2] = molecular target: T2, PHD of UHRF1 (residues 307–366) (human, UniProt Q96T88 307-366); test: as above
T2 construct: human UHRF1, PHD, residues 307–366; also called plant homeodomain; the isolated PHD
T2 sequence (looked up): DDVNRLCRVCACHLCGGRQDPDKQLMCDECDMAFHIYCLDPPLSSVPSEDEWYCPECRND

UHRF1^Δ627–674 = molecular target: T3, UHRF1^Δ627–674 (human, UniProt Q96T88 1-793, Δ627–674); test: pull-down; GST pull-down: 15 μg GST-tagged protein with 40 μg recombinant protein in 500 μl 20 mM HEPES-NaOH pH 8.0, 100 mM NaCl, 5% glycerol, 0.1% Triton X-100, 4 °C, glutathione resin, Coomassie staining; some panels with increasing hm-DNA
T3 construct: also called spacer deletion mutant
T3 sequence (looked up): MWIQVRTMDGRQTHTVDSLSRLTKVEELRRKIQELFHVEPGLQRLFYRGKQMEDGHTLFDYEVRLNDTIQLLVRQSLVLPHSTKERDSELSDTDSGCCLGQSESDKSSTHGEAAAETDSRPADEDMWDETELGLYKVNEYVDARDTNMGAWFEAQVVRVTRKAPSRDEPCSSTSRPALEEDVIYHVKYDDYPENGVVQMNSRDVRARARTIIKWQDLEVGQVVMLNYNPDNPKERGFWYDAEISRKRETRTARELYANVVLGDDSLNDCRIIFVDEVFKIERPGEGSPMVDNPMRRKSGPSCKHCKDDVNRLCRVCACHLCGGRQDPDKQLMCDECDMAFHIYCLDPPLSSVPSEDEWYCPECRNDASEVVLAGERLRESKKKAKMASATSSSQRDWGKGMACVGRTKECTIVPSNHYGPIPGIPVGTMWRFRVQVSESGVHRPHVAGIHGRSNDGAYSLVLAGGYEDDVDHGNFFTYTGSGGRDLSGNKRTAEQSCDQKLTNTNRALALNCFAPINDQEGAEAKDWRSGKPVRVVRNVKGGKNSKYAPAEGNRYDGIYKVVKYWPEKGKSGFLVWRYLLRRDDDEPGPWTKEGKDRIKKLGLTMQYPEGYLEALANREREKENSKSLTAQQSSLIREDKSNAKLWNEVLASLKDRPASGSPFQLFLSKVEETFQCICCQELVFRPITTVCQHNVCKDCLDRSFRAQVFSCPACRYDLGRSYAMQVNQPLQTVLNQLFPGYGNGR

- Kd [1]: 26 µM
- fold higher binding affinity than with full-length UHRF1 [2]: ~34 fold
B1: H3 peptide (1–17) (peptide, UniProt P68431 2-18, looked up)
peptide: ARTKQTARKSTGGKAPR
notes: histone H3, residues 1–17; also called H3K9me0; unmethylated histone H3

- binding result (UHRF1^Δ627–674): binds
B2: GST-tagged Spacer of UHRF1 (domain or fragment, human, UniProt Q96T88 587-674, looked up)
chain: PGPWTKEGKDRIKKLGLTMQYPEGYLEALANREREKENSKREEEEQQEGGFASPRTGKGKWKRKSAGGGPSRAGSPRRTSKKTKVEPY
notes: also called GST-Spacer
